Test results from US7179889B2, “Propionicin T1 polypeptide, a bacteriocin from Propionibacterium thoenii” (Provisage As, priority 2001, dated 2007).
“Also recorded” adds a separate entry of the source.

Experiments:
Listeria monocytogenes = conditions: food-borne pathogen; cited from earlier work
[1] = tested on: Lactobacillus sake NCDO 2714; assay: overlay assay, zones of growth inhibition around producer colonies; assay type: cell-based; conditions: bacteriocin
Method: (§1) Screening for antimicrobial activity. Colonies of strains of propionibacteria were grown on agar plates for 72 to 120 hr. A lawn of 5 ml GM17 soft agar containing 500 μl of a fresh culture of the indicator organisms was then poured over the plates. After incubation for 24 to 48 hr at 30° C., the colonies were examined for zones of growth inhibition.

[2] = tested on: P. acidipropionici ATCC 4965; assay: effect of the bacteriocin on the viability of sensitive cells; assay type: cell-based, Propionibacterium acidipropionici
Method: Effect of the bacteriocin on the viability of sensitive cells. Partially purified bacteriocin from P. thoenii 419 eluted in 0.3 M NaCl from an ion-exchange column was added in variable amounts to a 48 hr culture of P. acidipropionici grown in GM17, diluted 100-fold. Optical density at 620 nm and viable count (by dilution and plate counting) were determined at time intervals.
The effect of propionicin T1 on viability of sensitive cells. Several experiments were performed to show the effect of propionicin T1 on the viability of the indicator cells. Cultures of P. acidipropionici ATCC 4965 were exposed to different amounts of partially purified propionicin T1. […] More than 99% of the cells were killed after 40 hr (FIG. 2A). The same result was also obtained using 100 or 4000 BU/ml. […] This increase was followed by a decrease in optical density (FIG. 2B).

[3] = tested on: all strains of Propionibacterium thoenii tested; assay: inhibition spectrum of propionicin T1; assay type: cell-based
Method: as §1
(§2) Bacteriocin assay. Antimicrobial activity was determined by a microtiter plate assay (8). Each well of the microtiter plate contained 50 μl of twofold serial dilutions in SLB or GM17 of the bacteriocin samples, and 150 μl of a 100-fold-diluted fresh overnight culture of the indicator strain. The plates were incubated at 30° C. for 24 to 48 hr, and growth inhibition of the indicator organisms was measured spectrophotometrically at 620 nm with a microtiter plate reader. One bacteriocin unit (BU) was defined as the amount of bacteriocin that inhibited the growth of the indicator organism by 50% as compared with a control culture without bacteriocin.

[4] = tested on: all strains of Propionibacterium jensenii tested; assay: inhibition spectrum of propionicin T1; assay type: cell-based
Method: as §1, §2

[5] = tested on: all strains of Propionibacterium acidipropionici tested; assay: inhibition spectrum of propionicin T1; assay type: cell-based
Method: as §1, §2

[6] = tested on: Propionibacterium freudenreichii; assay: overlay assay, ten strains of Propionibacterium freudenreichii; assay type: cell-based; conditions: bacteriocin
Method: as §1

[7] = stability of propionicin T1 (heat, acid, storage); assay type: physicochemical
Method: as §2
Stability of propionicin T1. The stability of the peptide was tested, by exposing the bacteriocin (0.3 M NaCl eluate from the cation exchange column) to temperatures of 60° C. and 100° C. for 15 min and to pH 2.5 for one hour. […] Thus, propionicin T1 is heat stable and acid stable.

| Molecule | activity against Listeria monocytogenes (Listeria monocytogenes) | activity against Lactobacillus sake NCDO 2714 [1] | optical density (620 nm) of bacteriocin treated cultures ([2]; 100 or 1000 BU/ml culture, FIG. 2B) | cells killed, other bacteriocin amounts ([2]; 100 or 4000 BU/ml) | viable count ([2]; after 4 hr, plate counting) | cells killed ([2]; after 40 hr, 1000 BU/ml culture, plate counting, partially purified) | mode of action on indicator cells ([2]; plate counting) | activity against Propionibacterium thoenii [3] | activity against Propionibacterium jensenii [4] | activity against Propionibacterium acidipropionici [5] | activity against Propionibacterium freudenreichii [6] | antimicrobial activity after heat exposure ([7]; 60° C. for 15 min, 0.3 M NaCl eluate from cation exchange column) | antimicrobial activity after heat exposure ([7]; 100° C. for 15 min, 0.3 M NaCl eluate from cation exchange column) | antimicrobial activity after acid exposure ([7]; pH 2.5 for one hour, 0.3 M NaCl eluate from cation exchange column) | bacteriocin activity after storage at room temperature ([7]; room temperature for 24 hr) | bacteriocin activity after freezing, thawing and storage ([7]; storage at 4° C. or −20° C. up to six months) |
| --- | --- | --- | --- | --- | --- | --- | --- | --- | --- | --- | --- | --- | --- | --- | --- | --- |
| nisin | not very sensitive | – | – | – | – | – | – | – | – | – | – | – | – | – | – | – |
| pediocin PA1 (KYYGNGVTCGKHSCSVDWGKATTCIINNGAMAWATGGHQGNHKC; Bacteriocin pediocin PA-1; UniProt P29430 19-62, looked up) [antibacterial protein produced by Pediococcus acidilactici PAC1.0] | very active | – | – | – | – | – | – | – | – | – | – | – | – | – | – | – |
| Propionicin T1: new bacteriocin isolated from Propionibacterium thoenii 419 and LMG 2792; prebacteriocin SEQ ID NO:11, N-terminal sequence SEQ ID NO:9 (protein, listed as Propionibacterium thoenii) MKKTLLRSGTIALATAAAFGASLAAAPSAMAVPGGCTYTRSNRDVIGTCKTGSGQFRIRLDCNNAPDKTSVWAKPKVMVSVHCLVGQPRSISFETK | – | active | increase in the optical density for several hours after addition of bacteriocin | same result | reduction in viable count | More than 99% | bactericidal effect; also recorded: slow bactericidal mode of action | active | active | active | no activity; also recorded: no strains of P. freudenreichii were inhibited | No reduction in antimicrobial activity | No reduction in antimicrobial activity | No reduction in antimicrobial activity | no effect on the bacteriocin activity | no effect on the bacteriocin activity |
